“Also recorded” adds a separate entry of the source.
Tests used:
FGFR1c [1] = target: T1, FGFR1c (Homo sapiens, UniProt P11362); experiment: Pull-down of FLAG-sKL with Fc-tagged FGFR on protein A/G beads, absence of FGF23; format: binding
T1 construct: Fc-coupled FGFR ectodomains were immobilized on protein A/G beads; purchased R&D Systems 658FR050
T1 sequence (P11362 22-376 limits assumed): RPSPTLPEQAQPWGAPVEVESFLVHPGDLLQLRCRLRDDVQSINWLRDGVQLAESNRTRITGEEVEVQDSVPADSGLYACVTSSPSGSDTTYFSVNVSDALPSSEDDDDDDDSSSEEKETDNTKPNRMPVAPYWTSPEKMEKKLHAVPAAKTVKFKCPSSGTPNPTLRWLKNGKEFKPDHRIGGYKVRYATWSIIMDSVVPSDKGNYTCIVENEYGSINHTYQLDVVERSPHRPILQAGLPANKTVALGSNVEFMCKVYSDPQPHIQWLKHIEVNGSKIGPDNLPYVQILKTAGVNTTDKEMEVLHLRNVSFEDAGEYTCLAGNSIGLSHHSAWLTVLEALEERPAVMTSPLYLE
Procedure: (§1) To study the interaction between Fc-tagged FGFR isoforms (Fc-FGFR), FGF isoforms, and sKL, immunoprecipitation studies were conducted. Protein A beads (6501, BioVision) and protein G beads (6511, BioVision) were used at 25 μl of a 50% stock slurry per sample in a total bead volume of 50 μl. Beads were washed 5× in activity buffer (50 mM Tris [pH 7.4], 200 mM NaCl, 0.01% Tween 20). Bead spin-down assays were all performed for 2 minutes at 5000 g. Beads were resuspended in 1 ml of activity buffer in a 1.5-ml snap cap tube. One microgram of Fc-FGFR1 to 4 was incubated with the beads for 1 hour on a bead rotator. Control samples were incubated with 2 μg of anti-FGF antibody instead of Fc-FGFR. Beads were then pelleted at 5000 g for 2 minutes and washed 5× with activity buffer. Beads were resuspended and incubated with different combinations of 500 ng of FGF, 1 μg of sKL, 1.6 United States Pharmacopeia (USP) units of heparin, or phosphate-buffered saline (PBS). Beads were incubated for 1 hour on a tube rotator, and beads were pelleted and washed as before. One hundred microliters of 1× Laemmli sample buffer (1610737, Bio-Rad) with 1.42 M 2-mercaptoethanol was added, and samples were boiled for 5 minutes. Samples were analyzed using SDS-PAGE and Western blotting.
(§2) The sample (20 μl) was loaded onto Mini-PROTEAN TGX Precast Gel 4-20% for experiments with <9 samples (4568094, Bio-Rad) or Criterion TGX Precast Gel 4-20% (5678094, Bio-Rad) for experiments with >9 samples. Gels were run in 1× Tris/Glycine/SDS buffer (1610732, Bio-Rad) at 150 V and stopped when the sample dye reached the end of the gel. Gels were removed and electrotransferred via a semi-dry cassette (1703940, Bio-Rad) in I× Tris/Glycine buffer (1610734, Bio-Rad) with 20% methanol. Gels were transferred onto polyvinylidene diflouride membranes (IPVH00010, Millipore) at 20 V for 1 hour. Membranes were then blocked in 5% dried milk with 0.5% Tween 20 diluted in Tris-buffered saline (TBST; pH 7.5) for 1 hour and probed with antibodies against specific antigens at 1:1000 in TBST with 5% dried milk. Blots were washed 3× for 5 minutes in TBST and probed with HRP-coupled secondary antibodies against specific species at 1:10,000 in TBST with 5% dried milk. Membranes were imaged on the SRX-101A X-ray film developer (Konica Minolta).

FGFR3c = target: T2, FGFR3c (Homo sapiens, UniProt P22607); experiment: as above; format: binding
T2 construct: Fc-coupled FGFR ectodomains were immobilized on protein A/G beads; purchased R&D Systems 766FR050
T2 sequence (P22607 23-375 limits assumed): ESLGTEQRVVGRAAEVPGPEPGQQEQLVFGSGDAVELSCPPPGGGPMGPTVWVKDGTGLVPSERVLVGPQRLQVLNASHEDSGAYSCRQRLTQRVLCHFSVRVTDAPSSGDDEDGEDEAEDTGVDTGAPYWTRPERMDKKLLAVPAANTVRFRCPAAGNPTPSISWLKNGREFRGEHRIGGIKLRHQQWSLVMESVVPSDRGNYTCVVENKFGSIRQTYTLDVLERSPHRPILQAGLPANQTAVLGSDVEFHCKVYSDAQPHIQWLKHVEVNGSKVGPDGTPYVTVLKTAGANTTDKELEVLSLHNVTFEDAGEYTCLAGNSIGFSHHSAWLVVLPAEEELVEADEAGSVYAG
Procedure: as §1, §2

FGFR1c [2] = target: T1, FGFR1c; experiment: Plate-based binding assay, FGFR1c coated, FLAG-sKL detected with anti-FLAG HRP; settings: for binding of FLAG-sKL to coated FGFR1c: 40 ng FGFR1c coated, 80 ng FLAG-sKL, compared with FGFR4 and FGF23
Procedure: Proteins were coated on 96-well plates (MaxiSorp; 439454, Thermo Fisher Scientific), and proteins were added to wells in 100 μl of enzyme-linked immunosorbent assay (ELISA) coating buffer (E107, Bethyl Laboratories) with a lid placed overtop and incubated at 4° C. overnight. Plates were washed 5× with 350 μl of assay buffer (50 mM Tris [pH 7.4], 200 mM NaCl, 0.01% Tween 20) on a 50 TS microplate washer (BioTek). Plates were blocked for 1 hour in 200 μl of assay buffer with 0.5% BSA. Plates were washed as before, and proteins were incubated on plates in 100 μl of assay buffer with 0.5% BSA. Proteins or heparin was incubated in orders described in the respective figure legends. Assays using FLAG-tag-based detection were incubated with anti-FLAG coupled to HRP at 1:20,000, and assays using Fc detection were incubated with anti-human Fc coupled to HRP at 1:10,000. Plates were washed as above, and 100 μl of 3,3′,5,5′-tetramethylbenzidine (TMB) substrate (E102, Bethyl Laboratories) was added for 15 to 20 minutes until positive wells developed a dark blue color. Reactions were stopped with ELISA stop solution (E115, Bethyl Laboratories) and analyzed using the Synergy HI plate reader (BioTek) at 450 nm wavelength. […] As a control to remove background absorbance values, wells were coated with an equal amount of BSA to match the amount of protein coated in experimental wells and treated the same as experimental wells. To study the effects of sKL on the binding between paracrine FGFs and FGFRs, plates were run as above except coated with paracrine FGFs. Fc-FGFR1 was preincubated with sKL or vehicle for 60 minutes, and then the combination was added to wells and the assay was run as before.

B1: sKL: recombinant soluble α-klotho ectodomain, mouse aa 35-982 and human aa 34-981, FLAG- or Strep/His-tagged, purified from HEK293 cells (protein)
chain: EPGDGAQTWARFSRPPAPEAAGLFQGTFPDGFLWAVGSAAYQTEGGWQQHGKGASIWDTFTHHPLAPPGDSRNASLPLGAPSPLQPATGDVASDSYNNVFRDTEALRELGVTHYRFSISWARVLPNGSAGVPNREGLRYYRRLLERLRELGVQPVVTLYHWDLPQRLQDAYGGWANRALADHFRDYAELCFRHFGGQVKYWITIDNPYVVAWHGYATGRLAPGIRGSPRLGYLVAHNLLLAHAKVWHLYNTSFRPTQGGQVSIALSSHWINPRRMTDHSIKECQKSLDFVLGWFAKPVFIDGDYPESMKNNLSSILPDFTESEKKFIKGTADFFALCFGPTLSFQLLDPHMKFRQLESPNLRQLLSWIDLEFNHPQIFIVENGWFVSGTTKRDDAKYMYYLKKFIMETLKAIKLDGVDVIGYTAWSLMDGFEWHRGYSIRRGLFYVDFLSQDKMLLPKSSALFYQKLIEKNGFPPLPENQPLEGTFPCDFAWGVVDNYIQVDTTLSQFTDLNVYLWDVHHSKRLIKVDGVVTKKRKSYCVDFAAIQPQIALLQEMHVTHFRFSLDWALILPLGNQSQVNHTILQYYRCMASELVRVNITPVVALWQPMAPNQGLPRLLARQGAWENPYTALAFAEYARLCFQELGHHVKLWITMNEPYTRNMTYSAGHNLLKAHALAWHVYNEKFRHAQNGKISIALQADWIEPACPFSQKDKEVAERVLEFDIGWLAEPIFGSGDYPWVMRDWLNQRNNFLLPYFTEDEKKLIQGTFDFLALSHYTTILVDSEKEDPIKYNDYLEVQEMTDITWLNSPSQVAVVPWGLRKVLNWLKFKYGDLPMYIISNGIDDGLHAEDDQLRVYYMQNYINEALKAHILDGINLCGYFAYSFNDRTAPRFGLYRYAADQFEPKASMKHYRKIIDSNGFPGPETLERFCPEEFTVCTECSFFHTRKS
modifications: left off: small tags and cut ends
notes: recombinant soluble α-klotho ectodomain, mouse aa 35-982 and human aa 34-981, FLAG- or Strep/His-tagged, purified from HEK293 cells
FGFR1c [1]
  co-precipitation of FLAG-sKL with FGFR1c: could be co-precipitated with FGFR1c
FGFR3c
  sKL binding to FGFR3c: no sKL binding
FGFR1c [2]
  binding of FLAG-sKL to coated FGFR1c: highest affinity
FGFR1c [2]; listed as FLAG-sKL
  binding of FLAG-sKL to coated FGFR1c: highest affinity; also recorded: bound FGFR1c
FGFR1c [2]; 200 ng FGFR1c coated
  FGFR1c binding, protein from HEK293 lysates instead of supernatants: smaller increase
